The data set is described as follows: collision cross section of modified peptide (TIMS, N2, iRT-aligned); higher = larger / more extended gas-phase ion. In a few lines:
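On a timsTOF Pro/HT (dda-PASEF, nitrogen, ~2.4 mbar), synthetic peptide pools were analysed after a 120-min nanoflow C18 separation at 60 °C and identified in MaxQuant. Three reference ions served for 1/K0 calibration, with run-wise alignment to the median iRT peptide deviation. Collision cross section comes from the Mason-Schamp equation, using the most abundant feature per charge state averaged over 1–3 technical replicates.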

[1] abbreviates: charge state: 2, modification: Citrullination (R).
The mark [2] stands for this setting: charge state: 3, modification: Citrullination (R).
The mark [3] stands for this setting: charge state: 2, modification: Crotonyl.
Where [4] appears, read: charge state: 3, modification: Crotonyl.
Where [5] appears, read: charge state: 2, modification: GlyGly (K).
[6] abbreviates: charge state: 3, modification: GlyGly (K).
The mark [7] stands for this setting: charge state: 2, modification: Acetyl (K).
The mark [8] stands for this setting: charge state: 2, modification: Trimethyl (K).
Where [9] appears, read: charge state: 3, modification: Trimethyl (K).
The mark [10] stands for this setting: charge state: 2, modification: Propionyl.
[11] abbreviates: charge state: 3, modification: Acetyl (K).
Where [12] appears, read: charge state: 2, modification: Dimethyl (K).
The mark [13] stands for this setting: charge state: 3, modification: Dimethyl (K).
[14] abbreviates: charge state: 2, modification: Glutarylation.
Setting [15] is: charge state: 3, modification: Glutarylation.
[16] abbreviates: charge state: 3, modification: Methyl (R).
[17] abbreviates: charge state: 2, modification: Methyl (K).
Setting [18] is: charge state: 3, modification: Methyl (K).
[19] abbreviates: charge state: 2, modification: Succinyl.
Setting [20] is: charge state: 3, modification: Formyl.
Setting [21] is: charge state: 2, modification: Phospho (Y).
Where [22] appears, read: charge state: 2, modification: Methyl (R).
The mark [23] stands for this setting: charge state: 2, modification: Formyl.
The mark [24] stands for this setting: charge state: 2, modification: Biotin.

± gives the standard deviation.

In the case of “PLRAASPFR [_PLR(Citrullination (R))AASPFR_]”, the collision cross section turned out to be 334.99 ± 0.26 Å² under setting [1] and 442.41 Å² under setting [2].

Consider “PSVGSQSNQAGQGKR [_PSVGSQSNQAGQGK(Crotonyl)R_]”, for which the collision cross section reads like this: under setting [3], 420.02 ± 0.41 Å²; under setting [4], 468.33 ± 1.6 Å². On to “SKHLQEQLNELK [_SK(GlyGly (K))HLQEQLNELK_]”, for which the collision cross section by setting is: under setting [5], 420.45 ± 1.4 Å²; under setting [6], 495.28 ± 2 Å². Under setting [7], “SLFFGGKGAPLQR [_SLFFGGK(Acetyl (K))GAPLQR_]” came in with a collision cross section of 401.47 ± 0.85 Å². Take “DYSSGFGGKYGVQADR [_DYSSGFGGK(Trimethyl (K))YGVQADR_]”: the collision cross section runs as follows: under setting [8], 437.78 ± 0.016 Å²; under setting [9], 486.86 ± 1.8 Å². Sequence ILDLKTGTVK [_ILDLK(Propionyl)TGTVK_] yielded a collision cross section under setting [10] of 359.51 ± 0.33 Å².

For “DAIHFYNKSLAEHR [_DAIHFYNK(Acetyl (K))SLAEHR_]”, the collision cross section under setting [7] was found to be 449.95 Å² and the collision cross section under setting [11] is recorded as 504.71 ± 0.24 Å². In the case of “KYEEIDNAPEER [_K(Dimethyl (K))YEEIDNAPEER_]”, the collision cross section was found to be 402.53 ± 1.1 Å² under setting [12] and 484.37 ± 1.6 Å² under setting [13]. “ANLEKAQAELVGTADEATR [_ANLEK(Dimethyl (K))AQAELVGTADEATR_]” displayed a collision cross section under setting [13] of 525.41 ± 0.76 Å².

With “IHVQSSSDSSDEPAEKR [_IHVQSSSDSSDEPAEK(Gluratylation)R_]”, the collision cross section was determined as 455.23 ± 1.5 Å² under setting [14] and 511.69 ± 2 Å² under setting [15]. “SGKFTQQDIDEAK [_SGK(Dimethyl (K))FTQQDIDEAK_]”: the collision cross section under setting [12] came to 408.63 Å² and the collision cross section under setting [13] worked out at 466.84 ± 1.6 Å².

“YSSSSIPEPFGSRGSPR [_YSSSSIPEPFGSR(Methyl (R))GSPR_]” yielded a collision cross section under setting [16] of 522.38 ± 1.8 Å². Under setting [14], “PSVSTKLISK [_PSVSTK(Gluratylation)LISK_]” displayed a collision cross section of 361.01 ± 0.71 Å². Consider “ALASIDSKLNQAK [_ALASIDSK(Methyl (K))LNQAK_]”, for which the collision cross section by setting is: under setting [17], 411.6 ± 0.9 Å²; under setting [18], 462.35 ± 4.6 Å². As for VNALKNLQVK [_VNALK(Butyryl)NLQVK_], the collision cross section (charge state: 2, modification: Butyryl) amounted to 377.18 ± 0.8 Å².

For “TQDQISNIKYHEEFEK [_TQDQISNIK(hydroxyisobutyryl)YHEEFEK_]”, the collision cross section runs as follows: (charge state: 2, modification: hydroxyisobutyryl) 492.05 Å²; (charge state: 3, modification: hydroxyisobutyryl) 557.98 ± 1.2 Å².

“VFIGNLNTLVVKK [_VFIGNLNTLVVK(Acetyl (K))K_]”: the collision cross section is given as 409.46 ± 1.7 Å² under setting [7] and 485 Å² under setting [11]. On to “ASNAAVKLAESK [_ASNAAVK(GlyGly (K))LAESK_]”, for which the collision cross section is, setting by setting: under setting [5], 395.25 ± 1.5 Å²; under setting [6], 457.62 ± 1.1 Å². Turning to LAEEENKAK [_LAEEENK(Malonyl)AK_], the collision cross section (charge state: 2, modification: Malonyl) is 346.72 ± 0.74 Å². As to “TTGFYSGFSEVAEKR [_TTGFYSGFSEVAEK(Methyl (K))R_]”, the collision cross section is listed as 449.23 ± 2.4 Å² under setting [17] and 510.26 ± 2 Å² under setting [18]. In turn, GPPGPPGR [_GPPGPP(Hydroxyproline)GR_] gave a collision cross section (charge state: 2, modification: Hydroxyproline) of 291.03 ± 0.88 Å². With SLKLNTAEDAK [_SLK(Acetyl (K))LNTAEDAK_], the collision cross section under setting [7] amounted to 373.49 ± 1.6 Å². “TQAYQDQKPGTSGLR [_TQAYQDQK(Gluratylation)PGTSGLR_]” displayed a collision cross section under setting [14] of 436.36 ± 1.1 Å² and a collision cross section under setting [15] of 483.65 ± 1 Å². For the sequence SLKLNTAEDAK [_SLK(Succinyl)LNTAEDAK_], the collision cross section under setting [19] turned out to be 377.2 ± 0.87 Å². In the case of “YEQEHAAIQDKLFQVAK [_YEQEHAAIQDK(Formyl)LFQVAK_]”, the collision cross section under setting [20] is reported as 510.23 ± 1.3 Å². Sequence IPPTYQIR [_IPPTY(Phospho (Y))QIR_] returned a collision cross section under setting [21] of 350.25 ± 0.066 Å². For the sequence GRGGPGPAQR [_GR(Methyl (R))GGPGPAQR_], the collision cross section is, setting by setting: under setting [22], 327.6 ± 3 Å²; under setting [16], 431.84 ± 5.1 Å². Take “AQPQDSRGGSK [_AQPQDSR(Citrullination (R))GGSK_]”: under setting [1], the collision cross section was 347.45 ± 0.9 Å². The sequence “LGVATVAKGVCGACK [_LGVATVAK(GlyGly (K))GVCGACK_]” yielded a collision cross section under setting [5] of 453.34 ± 1.4 Å² and a collision cross section under setting [6] of 497.41 ± 0.34 Å². Consider ITLSKHQNVQLPR [_ITLSK(Biotin)HQNVQLPR_], for which, where the note is “charge state: 3, modification: Biotin”, the collision cross section came out at 502.67 Å². Consider “SSFAYKDQNENR [_SSFAYK(Propionyl)DQNENR_]”, for which the collision cross section under setting [10] stood at 401.75 ± 0.65 Å² and the collision cross section (charge state: 3, modification: Propionyl) was 462.04 Å². Under setting [21], LDYSDFQIVK [_LDY(Phospho (Y))SDFQIVK_] registered a collision cross section of 374.72 ± 0.79 Å². In turn, “PGGEGPQCEKTTDVK [_PGGEGPQCEK(Gluratylation)TTDVK_]” showed a collision cross section under setting [14] of 428.07 ± 0.56 Å². For “STGLELETPSLVPVKK [_STGLELETPSLVPVK(GlyGly (K))K_]”, the collision cross section was 452.54 ± 1.9 Å² under setting [5] and 530.27 ± 9.4 Å² under setting [6]. On to “TFGKAAGPSLSHTSGGTQSK [_TFGK(Formyl)AAGPSLSHTSGGTQSK_]”, for which the collision cross section is reported as 488.52 ± 0.72 Å² under setting [23] and 508.22 ± 1.5 Å² under setting [20].

“IVSGKDYNVTANSK [_IVSGK(Crotonyl)DYNVTANSK_]” yielded a collision cross section under setting [3] of 415.26 ± 1.1 Å².

In turn, “ALASIDSKLNQAK [_ALASIDSK(Propionyl)LNQAK_]” returned a collision cross section under setting [10] of 398.32 Å². On to GGPGSTLSFVGKR [_GGPGSTLSFVGK(Biotin)R_], for which the collision cross section under setting [24] is on record as 397.77 Å². With “TVSKVDDFLANEAK [_TVSK(Crotonyl)VDDFLANEAK_]”, under setting [3], the collision cross section was 421.27 ± 0.55 Å². As to IGNSYFKEEK [_IGNSYFK(Formyl)EEK_], the collision cross section under setting [23] turned out to be 368.62 ± 0.55 Å².

For PRGVISTPVIR [_PR(Methyl (R))GVISTPVIR_], the collision cross section is, setting by setting: under setting [22], 373.92 Å²; under setting [16], 447.15 ± 2.7 Å².

In the case of “EEKPAVTAAPK [_EEKPAVT(HexNAc (ST))AAPK_]”, the collision cross section was 383.27 ± 0.13 Å² (charge state: 2, modification: HexNAc (ST)) and 484.12 ± 0.17 Å² (charge state: 3, modification: HexNAc (ST)). For “LFVGGIKEDTEEHHLR [_LFVGGIK(Crotonyl)EDTEEHHLR_]”, under setting [4], the collision cross section stood at 544.97 ± 1.3 Å².

SLKLNTAEDAK [_SLK(Biotin)LNTAEDAK_] gave a collision cross section under setting [24] of 397.96 Å². For the sequence “AAINQKLIETGER [_AAINQK(Propionyl)LIETGER_]”, the collision cross section under setting [10] is 404.63 ± 0.38 Å². As to “ASNAAVKLAESK [_ASNAAVK(Trimethyl (K))LAESK_]”, the collision cross section under setting [8] is 392.01 ± 0.62 Å² and the collision cross section under setting [9] was determined as 456.46 ± 2.4 Å². Under setting [19], “YIEIYVQKVNPSR [_YIEIYVQK(Succinyl)VNPSR_]” returned a collision cross section of 436.15 Å². On to “PANEKATDDYHYEK [_PANEK(Crotonyl)ATDDYHYEK_]”, for which the collision cross section was determined as 442.98 ± 0.0094 Å² under setting [3] and 509.39 ± 1.3 Å² under setting [4]. For the sequence “STNVTVAAARGIK [_STNVTVAAAR(Citrullination (R))GIK_]”, the collision cross section was 395.23 ± 1.3 Å² under setting [1] and 471.03 Å² under setting [2].

For the origin of these results see the supplement of paper PMC10598134.
